Experimental data as given in the Human Domainome abundance scans (Beltran et al. 2025).
± gives the uncertainty stated by the source.

B1: Connector enhancer of kinase suppressor of ras 2, residues 9 to 71; numbered along this chain, Q8WXI2 (parent)
chain: SKWSPSQVVDWMKGLDDCLQQYIKNFEREKISGDQLLRITHQELEDLGVSRIGHQELILEAVD

Variants of: B1
Experiment: abundance fitness (aPCA) (normalised: wild type 0, dead -1); higher = more abundant; growth selection in yeast, the domain comes from the species named
Conditions: Homo sapiens

| Variant | abundance fitness |
| --- | --- |
| Q55W | -1.14 ± 0.06 |
| Q55N | -1.01 ± 0.091 |
| Q55L | -0.948 ± 0.041 |
| Q55R | 0.061 ± 0.024 |
| Q55T | -0.598 ± 0.036 |
| L59H | -0.657 ± 0.068 |
| L59Q | -0.646 ± 0.069 |
| L59K | -0.232 ± 0.034 |
| L59A | -0.653 ± 0.032 |
| L59P | -0.608 ± 0.075 |
| L59N | -0.741 ± 0.074 |
| L59W | -0.758 ± 0.056 |
| L59M | -0.032 ± 0.039 |
| L59V | -0.552 ± 0.03 |
| L59T | -0.607 ± 0.038 |
| L59E | -0.672 ± 0.041 |
| L59D | -0.594 ± 0.042 |
| L59C | -0.557 ± 0.048 |
| L59Y | -0.61 ± 0.055 |
| L59I | -0.241 ± 0.048 |
| L59G | -0.674 ± 0.032 |
| L59R | -0.363 ± 0.028 |
| L59S | -0.652 ± 0.043 |
| L59F | -0.358 ± 0.056 |

| Variant | abundance fitness |
| --- | --- |
| E56D | -0.011 ± 0.045 |
| E56C | -0.176 ± 0.043 |
| E56T | -0.077 ± 0.033 |
| E56L | -0.158 ± 0.029 |
| E56A | -0.138 ± 0.042 |
| E56K | 0.041 ± 0.037 |
| E56H | -0.121 ± 0.051 |
| E56S | -0.17 ± 0.032 |
| E56I | -0.102 ± 0.099 |
| E56P | -0.728 ± 0.063 |
| E56N | -0.046 ± 0.057 |
| E56M | -0.157 ± 0.042 |
| E56V | -0.161 ± 0.034 |
| E56W | -0.362 ± 0.041 |
| E56Y | -0.333 ± 0.062 |
| E56R | -0.009 ± 0.027 |
| E56G | -0.307 ± 0.031 |
| L57Y | -0.53 ± 0.051 |
| L57Q | -0.213 ± 0.043 |
| L57I | -0.242 ± 0.048 |
| L57E | -0.446 ± 0.034 |
| L57P | -0.831 ± 0.057 |
| L57R | -0.202 ± 0.027 |
| L57T | -0.448 ± 0.032 |

| Variant | abundance fitness |
| --- | --- |
| L57W | -0.987 ± 0.066 |
| L57D | -0.677 ± 0.064 |
| L57F | -0.553 ± 0.036 |
| L57N | -0.533 ± 0.049 |
| L57H | -0.482 ± 0.057 |
| L57G | -0.635 ± 0.043 |
| L57K | 0.021 ± 0.049 |
| L57M | 0.035 ± 0.04 |
| L57A | -0.105 ± 0.026 |
| L57V | -0.439 ± 0.033 |
| L57C | -0.394 ± 0.051 |
| L57S | -0.298 ± 0.033 |
| E60G | -0.096 ± 0.031 |
| E60R | -0.072 ± 0.025 |
| E60I | -0.531 ± 0.056 |
| E60H | -0.111 ± 0.038 |
| E60W | -0.664 ± 0.04 |
| E60T | -0.057 ± 0.03 |
| E60C | -0.187 ± 0.037 |
| E60S | -0.004 ± 0.026 |
| E60V | -0.439 ± 0.029 |
| E60Q | 0.006 ± 0.046 |
| E60D | -0.012 ± 0.047 |
| E60P | -0.905 ± 0.073 |

| Variant | abundance fitness |
| --- | --- |
| E60N | -0.012 ± 0.04 |
| E60Y | -0.514 ± 0.047 |
| E60F | -0.615 ± 0.058 |
| E60M | -0.226 ± 0.032 |
| V62N | -0.815 ± 0.057 |
| V62A | -0.335 ± 0.04 |
| V62L | -0.258 ± 0.037 |
| V62W | -0.909 ± 0.17 |
| V62E | -0.63 ± 0.11 |
| V62Y | -1.02 ± 0.11 |
| V62Q | -0.789 ± 0.089 |
| V62G | -0.802 ± 0.046 |
| V62P | -0.779 ± 0.077 |
| V62K | -0.392 ± 0.12 |
| V62C | -0.411 ± 0.047 |
| V62T | -0.58 ± 0.047 |
| V62I | -0.047 ± 0.044 |
| V62M | -0.552 ± 0.043 |
| V62H | -1.04 ± 0.11 |
| V62F | -0.921 ± 0.084 |
| V62D | -0.822 ± 0.088 |
| V62R | -0.061 ± 0.028 |
| V62S | -0.741 ± 0.048 |
